Drawing on US20200339680A1, this text covers MFI, fold over negative controls and fold over parental HEK293 for 1 molecule.

For assay [1], the target named is human TMEM106B (human) (UniProt Q9NUM4). Nature of the assay: FACS A549 1 ug/ml.
Assay [2] has the same target. The assay can be described thus: FACS HEK+huTMEM 0.1 ug/ml (2nd column so headed).
Assay [3] shares this target. The assay can be described thus: FACS U251.
The target in assay [4] is mouse TMEM106B (mouse) (UniProt Q80X71). Nature of the assay: FACS Neuro2a.
Assay [5] has as its target human TMEM106B (human) (UniProt Q9NUM4). The assay can be described thus: FACS HEK+huTMEM 0.1 ug/ml.
Assay [6] has the same target. The assay can be described thus: FACS A549.
For assay [7] the target is unchanged. The assay can be described thus: FACS HeLa.
Assay [8] has the same target. The assay can be described thus: FACS HEK+huTMEM 10 ug/ml.
The target is the same in assay [9]. The assay can be described thus: FACS HEK+huTMEM 1.0 ug/ml.
The target is the same in assay [10]. The assay can be described thus: FACS, supernatant, hu-transfected HEK293. Background: Flow cytometry measures light scatter and fluorescence of single cells or particles in a stream.
The target is the same in assay [11]. The assay can be described thus: FACS A549 10 ug/ml.
For assay [12], the target named is mouse TMEM106B (mouse) (UniProt Q80X71). The assay can be described thus: FACS, transfected HEK293.
Assay [13] concerns the target human TMEM106B (human) (UniProt Q9NUM4). The assay can be described thus: FACS, transfected HEK293.

B1: TM-4 (antibody, V domains shown)
VH: EVQVQQSGPVLVKPGASVKMSCKASGYTFTDYYMNWVKQSHGKNLEWIGVINPYNGGTSYHQKFKGKATLTVDKSSSTAYMELNSLTSEDSAVYYCARAATVVAGFDYWGQGTTLTVSS
VL: QAVVTQESALTTSPGETVTLTCRSSTGAVTTSNYANWVQEKPDHLFTGLIGGTNNRAPGVPARFSGSLIGDKAALTITGAQTEDEAIYFCVLWYSNHLVFGGGTKLTVL
Consider B1, for which the MFI stood at 373 MFI in assay [1]; 282 MFI in assay [2]; 349 MFI in [3]; 325 MFI in assay [4]; 304 MFI in assay [5]; 916 MFI in assay [6]. The MFI is 323 MFI in [7], 846 MFI in assay [8], 415 MFI in [9] and 443 MFI in assay [11]. Further, in assay [10], the fold over negative controls was more than 2 fold. Moreover, the figures for the fold over parental HEK293 in assay [12] and in assay [13] were 1.97 fold and 1.13 fold, respectively.
